In the supplement of paper PMC12042874:
± gives the uncertainty stated by the source.

Assay: amyloid nucleation score (Sup35N fusion, yeast selection) (log enrichment); library NNK2; higher = more nucleation; inactive = no reads after selection
Procedure, shortened: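 Using DiMSum, nucleation scores were taken as the log enrichment of output over input reads, centred on the mode score of non-aggregating sequences. The input and output reads came from Illumina sequencing of plasmid inserts, with sequences under 100 input reads excluded. The yeast were psi-negative, expressed Sup35N fused to peptides of 20 random codons, were induced with 100 μM copper sulfate for 24 hours, and were grown 7 days at 30°C on medium lacking adenine and uracil.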

| Substance | amyloid nucleation score |
| --- | --- |
| TKMYVD | -0.573 ± 1.1 |
| TKSGCRGIGHSSVVSS | 1.19 ± 0.37 |
| TLAWGSGELTTLTADEDLPS | 0.58 ± 0.19 |
| TLAYMNGVA | -0.928 ± 0.63 |
| TLCLMVVFKSRYCSFRIHMM | 0.21 ± 1 |
| TLDIALKGG | 0.271 ± 0.25 |
| TLFLSMLLMASSCYMTCCGD | -0.119 ± 0.55 |
| TLGSLLLLMSWVEGLQKHLI | 0.888 ± 0.48 |
| TLHCRSILGELLYVDMVKDD | -0.297 ± 0.46 |
| TLMIYCFFSGFLKGVWMM | 0.053 ± 0.8 |
| TLMKVRVYSSYGKVHVGSLA | 5.03 ± 0.08 |
| TLNTNMRSLLRI | inactive |
| TLSTGIFLLHLAYSSLSIDS | 0.637 ± 0.35 |
| TLTKKLHIGMLYPYHTLMLR | -0.596 ± 0.76 |
| TLVHSKF | 3.01 ± 0.089 |
| TLVNCVSMWWALHSVANGNG | 3.3 ± 0.11 |
| TLVVRGHC | 2.14 ± 0.11 |
| TLYDGWLVGPVERRFVIRAL | 1.08 ± 0.21 |
| TLYMFMPMLFNVIPEVRWPP | 9.03 ± 0.071 |
| TLYRPMTIMFMRVHHEVRWF | 6.195 ± 0.04 |
| TMKWLCN | 4.69 ± 0.054 |
| TMNIKLWGAGTRRMFEMEPG | 2.35 ± 0.22 |
| TMQIFMKSMINSGICSTYHL | 3.47 ± 0.08 |
| TMYWTAMMISGDLACQIGSR | 6.127 ± 0.046 |
| TNATSGGHMLMIYEDFNVYL | 2.49 ± 0.069 |

| Substance | amyloid nucleation score |
| --- | --- |
| TNCINM | 5.49 ± 0.055 |
| TNCSIMGTFSYFNDCSLGGT | 5.247 ± 0.051 |
| TNEAIEMS | inactive |
| TNIFR | -0.599 ± 1 |
| TNLMAFLRPFAVVTRND | -0.355 ± 0.76 |
| TNRIGFFLFCTAV | -0.049 ± 0.76 |
| TNSDSSTQKVIVMSLNAVVP | 6.11 ± 0.049 |
| TNSMNGFFFR | -1.81 ± 1 |
| TNWVDWESYISCGGNGFGGC | -0.92 ± 0.39 |
| TPAWCYPTGIGLIPPEWLGQ | 0.605 ± 0.23 |
| TPDGIRLSVAHCS | 0.764 ± 0.24 |
| TPFGTVECTQLLLSTSRWLF | -0.26 ± 1 |
| TPLLSWVTLFCCLGSPCLGT | 0.176 ± 0.76 |
| TPPWQGSDWCGNHCNWQGPM | 0.247 ± 0.8 |
| TPWSSVWSVALSGARMGPRS | 3.71 ± 0.079 |
| TPYGFSFRTRYMKQADLALS | -0.315 ± 0.33 |
| TQFISFRYYHNVDEIHYVVN | inactive |
| TQIFYSLRILLVDKLVSCGA | -0.787 ± 0.39 |
| TQRVGGIRW | 0.105 ± 0.24 |
| TRCFQILPCYRI | -0.624 ± 0.76 |
| TRCKGHYVWSLQSFRCSIVK | -0.512 ± 0.78 |
| TRDCLYFVLLILIIYLFGLR | 3.12 ± 0.14 |
| TRDIELWLGWNRKEVCVLLE | inactive |
| TRLDVQLGHGIGSV | 0.092 ± 1.1 |
| TRQKACMISKASPLGSSEYA | inactive |

| Substance | amyloid nucleation score |
| --- | --- |
| TRRWKALRP | 0.794 ± 0.2 |
| TSCFLLILCLQMKCTSFTSS | 2.18 ± 0.11 |
| TSDWRLYFRLTDVVIGLW | 1.86 ± 0.083 |
| TSFCTSVIGIVIHQDFAVDG | 5.574 ± 0.045 |
| TSFFPIILKRVPSIKLGTRK | inactive |
| TSGDCYMNGILNNGWGQ | -1.42 ± 0.78 |
| TSKRVFSRVESGTQVLGNEG | -0.053 ± 0.5 |
| TSLFI | 0.487 ± 0.6 |
| TSPGTGIVGDIYLHYIFVKW | 0.327 ± 0.46 |
| TSQLRMDGSSILMAHLKCYR | 0.441 ± 0.26 |
| TSRDWCLDVPWKSHYYEVKY | -0.518 ± 0.48 |
| TSRKGNSSHL | -1.54 ± 0.75 |
| TSRRHYIVSVNLMK | inactive |
| TSRYTHNCMPIDCMIMHMGI | 1.77 ± 0.14 |
| TSSTTGSYLWEDEDYSYNFF | 1.68 ± 0.12 |
| TSVIGKSGPRYLFLEC | 0.299 ± 0.8 |
| TSVNALFRWPRLFSYRREPV | 0.202 ± 0.79 |
| TSVYPRGYFPVSCACYFLLE | -1.3 ± 0.48 |
| TTDRTDCLSFQLNFTDMKRG | 6.08 ± 0.073 |
| TTHLLFLFLALKNNPRTILT | -0.294 ± 1.1 |
| TTPLTRRFRRFHVW | 1.02 ± 0.26 |
| TTRRC | -0.43 ± 0.32 |
| TTSVTGQC | -1.09 ± 0.55 |
| TVAVRSPIT | -0.686 ± 0.44 |
| TVCWSLFDDCSFYFRCNAFE | 8.42 ± 0.042 |

| Substance | amyloid nucleation score |
| --- | --- |
| TVDNPSNSFTFFRVYQLYVR | 3.11 ± 0.14 |
| TVFFF | 2.6 ± 0.11 |
| TVFFGLVCRGPVKKDM | 2.1 ± 0.17 |
| TVFRFNIYDYFFVM | 4.27 ± 0.057 |
| TVFVWKPRVGKN | 4.716 ± 0.044 |
| TVFWSNLVRVPCRSDTSQYD | 0.148 ± 1 |
| TVFYIYMGQDDG | 5.12 ± 0.1 |
| TVGIVGFHVVVRELWVGVRR | 6.868 ± 0.066 |
| TVGLIRLRLSILYFGPLDSV | 0.115 ± 0.56 |
| TVHCGMQWWLVARRPRNEAQ | 1.25 ± 0.38 |
| TVIRRIYFRRPGRSNMSCTN | -0.067 ± 0.65 |
| TVLWSRLDPPPRERKL | 1.13 ± 0.34 |
| TVMKDYMALESSSYVNPMLI | -0.251 ± 0.76 |
| TVMRGVLCMTILYLMWHKGY | 4.75 ± 0.08 |
| TVNCLGIFSRFLCLNWASWL | 3.53 ± 0.15 |
| TVRLVWSWMHTPLFGPVTCA | 0.073 ± 0.56 |
| TVSIDLASIWALA | inactive |
| TVSNPGMPNAI | -0.557 ± 0.64 |
| TVSQFLFN | -0.559 ± 0.76 |
| TVVGSLSVVF | 1.47 ± 0.38 |
| TVYAIP | -0.322 ± 0.65 |
| TWNGVWLGDFACFSWYMGPL | 0.094 ± 0.36 |
| TWRYRKMFASASFA | 0.33 ± 0.16 |
| TWTLQQSVLVSEKNAKGRVT | 3.98 ± 0.078 |
| TYCILPLRVRMWTSTTLCQV | 4.59 ± 0.055 |

| Substance | amyloid nucleation score |
| --- | --- |
| TYDLDLVMLRSMRVENLLWG | 0.616 ± 0.4 |
| TYEMSVVGVEWWVTGQLTIC | 1.68 ± 0.38 |
| TYFARCFDNWTVNWCVARVC | 0.614 ± 0.57 |
| TYNGMFTQLAFG | 3.48 ± 0.07 |
| TYPAHFVWLCNCCVDKYSLS | 2.79 ± 0.069 |
| TYSVGSSYCLRRSFGAGFFS | 0.728 ± 0.25 |
| TYTVRFENSRRTGDN | -0.13 ± 0.41 |
| TYVAFGGWLLEMPMLPTWSQ | 0.332 ± 0.37 |
| VADMVVRT | 0.806 ± 0.32 |
| VAESVSVT | 0.6 ± 0.24 |
| VAGIVYLGARW | 5.43 ± 0.086 |
| VAHKSPFIAHFTWVILAYGM | 0.211 ± 0.61 |
| VAMVLLC | 1.03 ± 0.21 |
| VAQAQQQYP | 1.08 ± 0.53 |
| VATLMIKFR | 4.116 ± 0.036 |
| VAVLKGVGDSPNLAGDSKWD | 0.355 ± 0.56 |
| VAVTMHYDNFHCLLCCCSTL | 8.384 ± 0.078 |
| VAWMFMASFRSLSMMVSISR | 0.01 ± 0.37 |
| VCAQLYPVYMWFWICMGMVQ | 2.27 ± 0.14 |
| VCELGRRWDLRSVLSC | 0.624 ± 0.42 |
| VCFNWRHYATRLSDERWLRS | 1.1 ± 0.52 |
| VCFVWDKARAMCSFYFV | -0.596 ± 0.79 |
| VCGMLTVIHWFLVIVVIDLV | 0.863 ± 0.58 |
| VCGWFHGHWGTWWDVQQRKR | 2.3 ± 0.16 |
| VCPPSDVS | inactive |

| Substance | amyloid nucleation score |
| --- | --- |
| VCREMSYLQ | -0.809 ± 0.54 |
| VCSGGLQDSRGYCCYPVGRM | 1.31 ± 0.32 |
| VCVGYFCC | 5.789 ± 0.024 |
| VCVLYLTSTGFLGQLY | 2.74 ± 0.14 |
| VDCGFYSSIVAFYRYVHVPW | -0.026 ± 0.27 |
| VDIASLKLTSNH | -0.213 ± 0.65 |
| VDITL | -0.779 ± 0.56 |
| VDRHYRSLRFVVGQSVLHSK | 4.952 ± 0.046 |
| VDRYLSHCVGKGLDF | -0.55 ± 0.56 |
| VDSVTGVMTFSTRSRSSDGD | 0.844 ± 0.43 |
| VDTSYITCITRLSPYIKVVL | -0.477 ± 0.79 |
| VDVFPAPSHRCGLMNLCNLV | 0.969 ± 0.28 |
| VDVVG | 0.299 ± 0.65 |
| VDWVMNCYTSGVVSLSFSLG | inactive |
| VEIFNLMSGTIIPGLSKLMK | -2.02 ± 0.45 |
| VENVTDGAVSARYDDMDTSS | -0.179 ± 0.3 |
| VERFWLIWSRAYYFDFRVRE | 0.098 ± 0.79 |
| VEWCRMVGWSFECEASEKHW | 4.33 ± 0.055 |
| VFAGFACFHIIN | 5.843 ± 0.044 |
| VFASMFILFYV | 3.46 ± 0.07 |
| VFCHLE | 2.43 ± 0.13 |
| VFDIWFLGSDTSSCVNWTYR | 6.583 ± 0.048 |
| VFHRVEYSWGFRFYCCCLMC | 3.91 ± 0.059 |
| VFIGQQDHINP | 0.363 ± 0.65 |
| VFKFLSAISPFKGD | 0.551 ± 0.38 |

| Substance | amyloid nucleation score |
| --- | --- |
| VFLFDLGYQGR | 6.67 ± 0.073 |
| VFLGVSGETVNSTGYFTGMN | -2.13 ± 1.1 |
| VFLLTLRCCWEFVLCADGP | 1.29 ± 0.36 |
| VFLYYRTILMWVVSGLL | -0.449 ± 0.63 |
| VFPMNELMASTVNKA | 6.274 ± 0.033 |
| VFRGAVSWTVLIGDNKVVLY | 0.674 ± 0.45 |
| VFSGGSPWWVANMRGAPKLL | 0.94 ± 0.2 |
| VFSSYYRSKEFTCIVLLGL | -0.026 ± 0.33 |
| VFTTQEGTTTIPRNSMIEYA | -0.193 ± 0.37 |
| VFVFFGDKW | inactive |
| VFVWIGLGWVTSLLSLYTNG | inactive |
| VFWLLGCVHNRGVGQTSHKL | 0.741 ± 0.47 |
| VFYELGLFLLNFVVLHASED | 1.68 ± 0.18 |
| VFYNLGVHMWLWWSGIVLVR | 0.775 ± 0.74 |
| VGCIYSFWEWVFKQPVRSRK | inactive |
| VGETLLSFCINWRVGYMFGN | -0.518 ± 0.5 |
| VGGLDKNHMVLDCLDKGCGM | 0.216 ± 0.62 |
| VGGSDSLNFIAIGKTFCVQV | 0.186 ± 0.27 |
| VGGWSLYSSPVLLRIWFKRH | 0.087 ± 0.79 |
| VGINLSSATGMFEGKIQDNA | -0.757 ± 0.37 |
| VGKLS | -0.528 ± 0.29 |
| VGLCVLFRWLHKTWMMEWLG | 0.426 ± 0.35 |
| VGMTTSWMVDPHGGRPGYHS | 2.01 ± 0.16 |
